Measured values taken from publication PMC12902261.

The sequences below were run against NbMTA (Nicotiana benthamiana) (UniProt A0A1J6JV69) (assay: BLI). Settings: Octet RED 96, Super Streptavidin sensors, 100 nM biotinylated ssRNA loaded, NbMTA (50 nM stated; serial dilutions), equilibration in 0.01 M saline, PBS ….
“GGGAAAAAUAAAUCCAAAAGAAUUCAAGCCUUGAAGUUUCGCCAUGCUCGUGACAAAAGGGCUGGUUUUGAAAUUGACAACAAUGAUGACACAAUAGAGGAAUUCUUUGGAUCUGCAUACAGGAAAAAGGGAAAAGGUAAAGGUACCACUGUUGGUAUGGGCAAGUCAAGCAGAAGGUUUGUUAA [PVY NIa peak 2-1 probe]” was tested, and the Kd was > 30 µM. Sequence “UCUGGGACACAUACUGUGCCGAGAAUCAAGGCUAUCACGUCCAAAAUGAGAAUGCCCAAAAGCAAGGGAGCAACCGUGCUAAACUUAGAACACUUGCUUGAGUAUGCUCCACAACAAAUUGAUAUUUCAAAUACUCGGGCAACUCAAUCACA [PVY CP peak 3 probe]” has a Kd of 3.1 µM. In the case of “UGCAGUUCGUUCAUCACCAAGCUACGACGUCACUUGCAAAGGAUCUCAAGUUGAAGGGGACUUGGAAGAAGUCAUUAGUGGCCAAAGACUUGAUCAUAGCAGGCGCUGUUGCAAUUGGUGGAAUAGGACUCAUAUAUAGUUGGUUCACACAAUCAGUUGAGACUGUGUCUCACCAA [PVY 6K2 peak 2-1 probe]”, the Kd is reported as > 30 µM.
